US5668109A, “Peptides for inhibiting pepsin release” (Societe de Conseils de Recherches et D'Applications …, priority 1994, dated 1997)
Square brackets hold non-standard residues; d marks the D form. Ends that are not written are not given here.

Conditions: in vivo

Pro--Val--Thr--Lys--Pro--Gln-D-Ala--NH2 (PVTKPQ[dA]-NH2; N-terminus assumed; SMILES CC(C)[C@H](NC(=O)[C@@H]1CCCN1)C(=O)N[C@H](C(=O)N[C@@H](CCCCN)C(=O)N1CCC[C@H]1C(=O)N[C@@H](CCC(N)=O)C(=O)N[C@H](C)C(N)=O)[C@@H](C)O) [P^D1]
quantity found in the organism: greater than 10%
